Test results: patent US20250376519A1 (JIANGSU HENGRUI PHARMACEUTICALS, published 2025)

Key:
[1] = biological target: T1, human DLL3 (ACRO, DLL3-H52H4) (human, UniProt Q9NYJ7 27-492); assay: SPR Biacore 8K, Ab captured on Protein A
T1 construct: Bought
T1 sequence: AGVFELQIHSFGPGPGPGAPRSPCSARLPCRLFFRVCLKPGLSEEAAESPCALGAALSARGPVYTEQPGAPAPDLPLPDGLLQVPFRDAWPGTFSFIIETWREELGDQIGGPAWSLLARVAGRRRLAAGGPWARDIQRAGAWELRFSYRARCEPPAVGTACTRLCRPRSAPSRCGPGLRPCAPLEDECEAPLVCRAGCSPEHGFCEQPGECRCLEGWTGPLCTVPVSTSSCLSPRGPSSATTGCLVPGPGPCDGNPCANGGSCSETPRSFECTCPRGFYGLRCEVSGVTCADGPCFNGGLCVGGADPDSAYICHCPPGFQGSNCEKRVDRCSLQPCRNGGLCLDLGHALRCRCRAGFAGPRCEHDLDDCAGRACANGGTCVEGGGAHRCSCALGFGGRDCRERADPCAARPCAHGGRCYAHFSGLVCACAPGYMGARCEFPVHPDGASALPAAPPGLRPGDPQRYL
How it was run: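 Antibodies captured on a Protein A chip for 18 s; DLL3 or CD3D&3E antigen flowed 180 s, then 600 s dissociation, with real-time detection. Regeneration used 10 mM glycine-HCl pH 1.5 between cycles. Kinetics were obtained by 1:1 model fitting.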

human DLL3 on cells [2] = biological target: T2, human DLL3 on cells (human, UniProt Q9NYJ7 27-618); assay: flow cytometry, H1184 cells
T2 construct: Endogenous on H1184 and SHP77; Cell line is named under assay; also called H1184; DLL3/H82
T2 sequence: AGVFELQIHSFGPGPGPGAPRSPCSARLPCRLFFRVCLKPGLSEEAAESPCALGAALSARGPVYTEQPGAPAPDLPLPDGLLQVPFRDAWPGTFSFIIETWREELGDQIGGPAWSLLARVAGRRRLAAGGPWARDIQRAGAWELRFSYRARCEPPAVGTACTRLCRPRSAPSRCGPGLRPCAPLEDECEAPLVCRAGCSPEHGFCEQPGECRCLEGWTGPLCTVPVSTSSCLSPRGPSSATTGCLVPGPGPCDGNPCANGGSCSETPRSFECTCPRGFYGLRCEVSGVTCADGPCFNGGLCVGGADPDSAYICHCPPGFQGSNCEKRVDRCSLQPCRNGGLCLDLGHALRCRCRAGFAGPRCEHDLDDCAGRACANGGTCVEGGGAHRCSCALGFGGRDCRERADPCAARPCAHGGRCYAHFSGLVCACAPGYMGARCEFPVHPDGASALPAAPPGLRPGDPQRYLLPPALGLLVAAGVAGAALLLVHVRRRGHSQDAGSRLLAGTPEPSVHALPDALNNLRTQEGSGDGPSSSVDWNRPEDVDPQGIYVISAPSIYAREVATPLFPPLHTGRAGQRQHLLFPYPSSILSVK
Description: (§1) The plates were centrifuged at 300 g for 5 min, and the supernatant was removed. Different concentrations of test antibodies were added at 100 μL/well. The plates were incubated in the dark in a refrigerator at 4° C. for 1 h. After 3 centrifugal washes at 300 g, working concentrations of APC anti-human IgG Fc (BioLegend, 410712) or PE F(ab′)2-goat anti-human IgG (invitrogen, H10104) were added. The plates were incubated in the dark in a refrigerator at 4° C. for 40 min. After 3 centrifugal washes at 300 g, the geometric mean fluorescence intensity was measured on an Invitrogen flow cytometer, and the EC50 values for the binding of the antibodies to DLL3-expressing cells were calculated.

human DLL3 on cells [3] = biological target: T2, human DLL3 on cells; assay: flow cytometry, DLL3/H82 cells
Description: as §1

B1: hu98L2H2 (antibody, human IgG1, kappa, V domains shown)
VH: EVQLVESGGGLVQPGGSLRLSCAASGFTFSDYGIHWVRQAPGKGLEWVAYISSGGYTIYYADTVKGRFTISRDNAKNSLYLQMNSLRAEDTAVYYCARGDYEDIFYTMDYWGQGTTVTVSS
VL: DIQMTQSPSSLSASVGDRVTITCRASRDITKFLNWYQQKPGKAVKLLIYYTSRLHSGVPSRFSGSGSGTDYTLTISSLQPEDFATYYCQQGNTLPWTFGGGTKVEIKR
[1]
  Kd: 0.55 nM
  koff: 0.000668 s⁻¹
  kon: 1.22e+06 M⁻¹ s⁻¹
Human DLL3 on cells [2]
  Emax: 2310

B2: hu98L3H2 (antibody, human IgG1, kappa, V domains shown)
VH: EVQLVESGGGLVQPGGSLRLSCAASGFTFSDYGIHWVRQAPGKGLEWVAYISSGGYTIYYADTVKGRFTISRDNAKNSLYLQMNSLRAEDTAVYYCARGDYEDIFYTMDYWGQGTTVTVSS
VL: DIQMTQSPSSLSASVGDRVTITCRASRDITKFLNWYQQKPGGAVKLLIYYTSRLHSGVPSRFSGSGSGTDYTLTISSLQPEDFATYYCQQGNTLPWTFGGGTKVEIKR
[1]
  Kd: 0.464 nM
  koff: 0.000732 s⁻¹
  kon: 1.58e+06 M⁻¹ s⁻¹
Human DLL3 on cells [2]
  Emax: 2350

B3: hu98L3H5 (antibody, human IgG1, kappa, V domains shown)
VH: EVQLVESGGGLVQPGGSLRLSCAASGFTFSDYGMHWVRQAPGKGLEWVAYISSGGYTSYYADTVKGRFTISRDNAKNSLYLQMNSLRAEDTAVYYCARGDYEDIFYTMDYWGQGTTVTVSS
VL: DIQMTQSPSSLSASVGDRVTITCRASRDITKFLNWYQQKPGGAVKLLIYYTSRLHSGVPSRFSGSGSGTDYTLTISSLQPEDFATYYCQQGNTLPWTFGGGTKVEIKR
[1]
  Kd: 1.22 nM
  koff: 0.00173 s⁻¹
  kon: 1.42e+06 M⁻¹ s⁻¹
Human DLL3 on cells [2]
  Emax: 1540

B4: hu98L1H1 (antibody, human IgG1, kappa, V domains shown)
VH: EVQLVESGGGLVQPGGSLRLSCAASGFTFSDYGIHWVRQAPGKGLEWVAYISSGGYTIYYADTVKGRFTISRDNAKNSLYLQMNSLRAEDTAVYYCARGDYDDIFYTMDYWGQGTTVTVSS
VL: DIQMTQSPSSLSASVGDRVTITCRASRDITKFLNWYQQKPGKAPKLLIYYTSRLHSGVPSRFSGSGSGTDFTLTISSLQPEDFATYYCQQGNTLPWTFGGGTKVEIKR
[1]
  Kd: 1.1 nM
  koff: 0.00171 s⁻¹
  kon: 1.55e+06 M⁻¹ s⁻¹
Human DLL3 on cells [2]
  Emax: 2820

B5: hu98L2H1 (antibody, human IgG1, kappa, V domains shown)
VH: EVQLVESGGGLVQPGGSLRLSCAASGFTFSDYGIHWVRQAPGKGLEWVAYISSGGYTIYYADTVKGRFTISRDNAKNSLYLQMNSLRAEDTAVYYCARGDYDDIFYTMDYWGQGTTVTVSS
VL: DIQMTQSPSSLSASVGDRVTITCRASRDITKFLNWYQQKPGKAVKLLIYYTSRLHSGVPSRFSGSGSGTDYTLTISSLQPEDFATYYCQQGNTLPWTFGGGTKVEIKR
[1]
  Kd: 0.269 nM
  koff: 0.000389 s⁻¹
  kon: 1.45e+06 M⁻¹ s⁻¹
Human DLL3 on cells [2]
  Emax: 2470

B6: hu98L3H4 (antibody, human IgG1, kappa, V domains shown)
VH: EVQLVESGGGLVQPGGSLRLSCAASGFTFSDYGIHWVRQAPGKGLEWVAYISSGGYTSYYADTVKGRFTISRDNAKNSLYLQMNSLRAEDTAVYYCARGDYEDIFYTMDYWGQGTTVTVSS
VL: DIQMTQSPSSLSASVGDRVTITCRASRDITKFLNWYQQKPGGAVKLLIYYTSRLHSGVPSRFSGSGSGTDYTLTISSLQPEDFATYYCQQGNTLPWTFGGGTKVEIKR
[1]
  Kd: 1.11 nM
  koff: 0.00151 s⁻¹
  kon: 1.36e+06 M⁻¹ s⁻¹
Human DLL3 on cells [2]
  Emax: 1600

B7: hu98L3H1 (antibody, human IgG1, kappa, V domains shown)
VH: EVQLVESGGGLVQPGGSLRLSCAASGFTFSDYGIHWVRQAPGKGLEWVAYISSGGYTIYYADTVKGRFTISRDNAKNSLYLQMNSLRAEDTAVYYCARGDYDDIFYTMDYWGQGTTVTVSS
VL: DIQMTQSPSSLSASVGDRVTITCRASRDITKFLNWYQQKPGGAVKLLIYYTSRLHSGVPSRFSGSGSGTDYTLTISSLQPEDFATYYCQQGNTLPWTFGGGTKVEIKR
[1]
  Kd: 0.232 nM
  koff: 0.000372 s⁻¹
  kon: 1.6e+06 M⁻¹ s⁻¹
Human DLL3 on cells [2]
  Emax: 2440

B8: hu110L1H2 (antibody, human IgG1, kappa, V domains shown)
VH: EVQLVQSGAEVKKPGASVKVSCKTSGYTFTDYYMNWVRQAPGQSLEWMGIINPYNGGTSYTQKFKGRVTITVDKSASTAYMELSSLRSEDTAVYYCARHFYDSSYLTYSTMDYWGQGTTVTVSS
VL: DIVMTQSPDSLAVSLGERATINCKASENVGIFVSWYQQKPGQSPKLLIYGASNRYTGVPDRFSGSGSATDFTLTISSLQAEDVAVYYCGQSHSYPLTFGQGTKLEIKR
[1]
  Kd: 0.0819 nM
  koff: 4.26e-05 s⁻¹
  kon: 520000 M⁻¹ s⁻¹
Human DLL3 on cells [3]
  EC50: 1.31 nM
  Emax: 4700

B9: hu110L1H3 (antibody, human IgG1, kappa, V domains shown)
VH: EVQLVQSGAEVKKPGASVKVSCKTSGYTFTDYYMNWVRQAPGQSLEWMGIINPYQGGTSYTQKFKGRVTITVDKSASTAYMELSSLRSEDTAVYYCARHFYDSSYLTYSTMDYWGQGTTVTVSS
VL: DIVMTQSPDSLAVSLGERATINCKASENVGIFVSWYQQKPGQSPKLLIYGASNRYTGVPDRFSGSGSATDFTLTISSLQAEDVAVYYCGQSHSYPLTFGQGTKLEIKR
[1]
  Kd: 0.0843 nM
  koff: 4.75e-05 s⁻¹
  kon: 564000 M⁻¹ s⁻¹
Human DLL3 on cells [3]
  EC50: 1.15 nM
  Emax: 4560

B10: hu110L1H1 (antibody, human IgG1, kappa, V domains shown)
VH: EVQLVQSGAEVKKPGASVKVSCKASGYTFTDYYMNWVRQAPGQRLEWMGIINPYNGGTSYTQKFKGRVTITVDKSASTAYMELSSLRSEDTAVYYCARHFYDSSYLTYSTMDYWGQGTTVTVSS
VL: DIVMTQSPDSLAVSLGERATINCKASENVGIFVSWYQQKPGQSPKLLIYGASNRYTGVPDRFSGSGSATDFTLTISSLQAEDVAVYYCGQSHSYPLTFGQGTKLEIKR
[1]
  Kd: 0.068 nM
  koff: 4.17e-05 s⁻¹
  kon: 614000 M⁻¹ s⁻¹
Human DLL3 on cells [3]
  EC50: 1.15 nM
  Emax: 4470

B11: hu110L1H5 (antibody, human IgG1, kappa, V domains shown)
VH: EVQLVQSGAEVKKPGASVKVSCKTSGYTFTDYYMNWVRQAPGQSLEWMGIINPYTGGTSYTQKFKGRVTITVDKSASTAYMELSSLRSEDTAVYYCARHFYDSSYLTYSTMDYWGQGTTVTVSS
VL: DIVMTQSPDSLAVSLGERATINCKASENVGIFVSWYQQKPGQSPKLLIYGASNRYTGVPDRFSGSGSATDFTLTISSLQAEDVAVYYCGQSHSYPLTFGQGTKLEIKR
[1]
  Kd: 0.141 nM
  koff: 6.41e-05 s⁻¹
  kon: 454000 M⁻¹ s⁻¹
Human DLL3 on cells [3]
  EC50: 1.61 nM
  Emax: 4610

B12: hu110L1H6 (antibody, human IgG1, kappa, V domains shown)
VH: EVQLVQSGAEVKKPGASVKVSCKTSGYTFTDYYMNWVRQAPGQSLEWMGIINPYNVGTSYTQKFKGRVTITVDKSASTAYMELSSLRSEDTAVYYCARHFYDSSYLTYSTMDYWGQGTTVTVSS
VL: DIVMTQSPDSLAVSLGERATINCKASENVGIFVSWYQQKPGQSPKLLIYGASNRYTGVPDRFSGSGSATDFTLTISSLQAEDVAVYYCGQSHSYPLTFGQGTKLEIKR
[1]
  Kd: 0.102 nM
  koff: 5.32e-05 s⁻¹
  kon: 520000 M⁻¹ s⁻¹
Human DLL3 on cells [3]
  EC50: 1.66 nM
  Emax: 4620

B13: hu110L1H4 (antibody, human IgG1, kappa, V domains shown)
VH: EVQLVQSGAEVKKPGASVKVSCKTSGYTFTDYYMNWVRQAPGQSLEWMGIINPYSGGTSYTQKFKGRVTITVDKSASTAYMELSSLRSEDTAVYYCARHFYDSSYLTYSTMDYWGQGTTVTVSS
VL: DIVMTQSPDSLAVSLGERATINCKASENVGIFVSWYQQKPGQSPKLLIYGASNRYTGVPDRFSGSGSATDFTLTISSLQAEDVAVYYCGQSHSYPLTFGQGTKLEIKR
[1]
  Kd: 0.0911 nM
  koff: 4.8e-05 s⁻¹
  kon: 527000 M⁻¹ s⁻¹
Human DLL3 on cells [3]
  EC50: 1.51 nM
  Emax: 4580

B14: hu6L2H7 (antibody, human IgG1, kappa, V domains shown)
VH: EVQLVESGGGLVQPGGSLKLSCAASGYTFTDYYMNWVRQASGKGLEWVGIINPYSGVTIYNHKFKGRFTLSVDKSKNTAYLQMNSLKTEDTAVYYCARQDSLLDYAMDYWGQGTTVTVSS
VL: DIQMTQSPSSLSASVGDRVTITCHASQGISGNMGWLQQKPGKAPKGLIYHGANLEDGVPSRFSGSGSGADYTLTISSLQPEDFATYYCVQYAQFPYTFGGGTKVEIKR
[1]
  Kd: 3.06 nM
  koff: 0.00205 s⁻¹
  kon: 670000 M⁻¹ s⁻¹
Human DLL3 on cells [2]
  EC50: 0.07 nM
  Emax: 2200
